Source: patent publication US20020123056

Tests used:
[1] = target: PDK1 peptide (PDKtide) …
[2] = target: T1, PKB-sub peptide (GSK3 consensus peptide) CKRPRAASFAE
T1 chain: CKRPRAASFAE

B1: GST-SGK2 fusion protein (human SGK2 with N-terminal Glutathione S-transferase tag, expressed in Hi5 insect cells) (protein)
chain: MNSSPAGTPSPQPSRANGNINLGPSANPNAQPTDFDFLKVIGKGNYGKVLLAKRKSDGAFYAVKVLQKKSILKKKEQSHIMAERSVLLKNVRHPFLVGLRYSFQTPEKLYFVLDYVNGGELFFHLQRERRFLEPRARFYAAEVASAIGYLHSLNIIYRDLKPENILLDCQGHVVLTDFGLCKEGVEPEDTTSTFCGTPEYLAPEVLRKEPYDRAVDWWCLGAVLYEMLHGLPPFYSQDVSQMYENILHQPLQIPGGRTVAACDLLQSLLHKDQRQRLGSKADFLEIKNHVFFSPINWDDLYHKRLTPPFNPNVTGPADLKHFDPEFTQEAVSKSIGCTPDTVASSSGASSAFLGFSYAPEDDDILDC
[1]
  in vitro kinase assay, 32P incorporation into peptide (purified SGK2): addition of same amount of control peptide (PDK1 peptide) had no significant incorporation
[2]
  in vitro kinase assay, 32P incorporation into peptide (purified SGK2): PKB-sub had significant incorporation of ^32P
  in vitro kinase assay, PDK1-activated versus non-activated SGK2: the PDK1 activated SGK2 had significantly higher kinase activity compared to non-activated SGK2
